Patent US20240124543A1
Where two headings read alike, the source gives them in different places.

What was measured:
Test in all cases: cell-based or functional assay
TGFβ1 (R&D systems) [1] = target: TGFβ1 (R&D systems) (UniProt P01137)
TGFβ1 (R&D systems) [2] = target: TGFβ1 (R&D systems) (UniProt P01137); remark: listed apart in the source
[3] = target: IL2Rβ and common γ chain on 32Dβ cells
IL2Rαβγ on CTLL2 cells = target: IL2Rαβγ on CTLL2 cells
[4] = target: IL2Rβ and common γ chain on 32Dβ cells; remark: listed apart in the source

UniProt P01137, sequence (P01137 279-390 limits assumed): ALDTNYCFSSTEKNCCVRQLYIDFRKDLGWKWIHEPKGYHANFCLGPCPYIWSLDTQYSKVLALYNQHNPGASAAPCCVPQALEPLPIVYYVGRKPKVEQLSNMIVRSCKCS

Human recombinant TGFβRII/Fc (from UniProt P37173 24-159) (Fc fusion)
IC50, inhibition of TGFβ1 activity in HEK-Blue TGFβ cells (TGFβ1 (R&D systems) [1]): 0.559 nM
IC50, inhibition of TGFβ1 activity in HEK-Blue TGFβ cells (TGFβ1 (R&D systems) [2]): 0.461 nM

human recombinant IL-15 (from UniProt P40933 49-162) (ligand)
EC50, 32Dβ cell proliferation (WST1) [3]: 0.0106 nM
EC50, CTLL2 cell proliferation (PrestoBlue) (IL2Rαβγ on CTLL2 cells): 0.00495 nM
EC50, CTLL2 cell proliferation (WST1) (IL2Rαβγ on CTLL2 cells): 0.00622 nM
EC50 (printed EC:), 32Dβ cell proliferation (WST1) [4]: 0.0166 nM
EC50, 32Dβ cell proliferation (WST1) [4]: 0.0166 nM
